Values quoted from earlier work in article PMC4963854, “Mapping Protein–Protein Interactions of the Resistance-Related Bacterial Zeta Toxin–Epsilon Antitoxin Complex (ε2ζ2) with High Affinity Peptide Ligands Using Fluorescence Polarization” (Toxins, 2016).

Biological target: Zeta toxin (Streptococcus pyogenes) (UniProt Q54944)
Sequence (Q54944 2-287): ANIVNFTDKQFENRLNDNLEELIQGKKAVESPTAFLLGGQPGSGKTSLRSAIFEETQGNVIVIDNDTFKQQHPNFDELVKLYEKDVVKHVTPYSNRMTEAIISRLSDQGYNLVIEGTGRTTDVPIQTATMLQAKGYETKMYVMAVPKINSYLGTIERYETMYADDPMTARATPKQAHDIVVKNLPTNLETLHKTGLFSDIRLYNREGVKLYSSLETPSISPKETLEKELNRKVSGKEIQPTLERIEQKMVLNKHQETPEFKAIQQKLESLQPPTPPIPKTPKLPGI

Sequence of Epsilon antitoxin (Q57231 2-90): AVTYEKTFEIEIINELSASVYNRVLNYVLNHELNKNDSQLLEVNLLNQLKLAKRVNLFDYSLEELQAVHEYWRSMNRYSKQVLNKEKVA

Q: With Epsilon antitoxin (from UniProt Q57231) as the substance, how does the Kd read?
A: 1 µM
